Assays:
[1] = target: 纯化的ENO2蛋白 (purified ENO2 protein coated in Example 7) (UniProt P09104 1-434, limits assumed); experiment: ELISA, ENO2 coated at 100 ng/well, 293T supernatant, HRP anti-heavy-chain IgG / anti-kappa secondary, OD450
[2] = target: T1, ENO2-GST (human ENO2 expressed from pGEX 4t-1, GST-purified) (human, UniProt P09104 1-434); experiment: ELISA screening of hybridoma supernatants on coated ENO2-GST (100 ng/well), three rounds of subcloning
T1 construct: Expressed in E. coli BL21(DE3) and used to coat the ELISA plates; also called pGEX 4t-1载体表达的ENO2; ENO2抗原; not shown: GST tag of vector pGEX 4t-1

[3] = target: T2, ENO2 with C-terminal flag tag (ENO2flag-pcDNA3.1, expressed in transfected cells, lysate) (UniProt P09104 2-434); experiment: Western blot, lysate of cells transfected with ENO2flag-pcDNA3.1, hybridoma supernatant as primary antibody
T2 construct: Denatured cell lysate on SDS-PAGE / PVDF membrane (Western blot); also called ENO2抗原; not shown: C-terminal flag tag
T2 sequence (P09104 2-434 limits assumed): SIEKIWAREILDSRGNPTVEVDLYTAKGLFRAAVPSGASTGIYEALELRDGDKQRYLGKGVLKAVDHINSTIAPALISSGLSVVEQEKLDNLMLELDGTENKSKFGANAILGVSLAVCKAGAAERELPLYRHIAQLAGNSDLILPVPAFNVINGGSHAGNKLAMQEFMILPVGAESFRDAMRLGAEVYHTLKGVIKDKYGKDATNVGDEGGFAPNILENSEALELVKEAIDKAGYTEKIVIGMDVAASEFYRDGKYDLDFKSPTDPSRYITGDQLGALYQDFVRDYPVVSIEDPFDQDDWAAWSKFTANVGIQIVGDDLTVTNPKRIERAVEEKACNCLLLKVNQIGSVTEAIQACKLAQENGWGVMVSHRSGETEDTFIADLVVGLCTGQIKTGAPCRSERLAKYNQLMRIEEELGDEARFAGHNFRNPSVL

Chain of 纯化的ENO2蛋白 (purified ENO2 protein coated in Example 7) (P09104 whole entry): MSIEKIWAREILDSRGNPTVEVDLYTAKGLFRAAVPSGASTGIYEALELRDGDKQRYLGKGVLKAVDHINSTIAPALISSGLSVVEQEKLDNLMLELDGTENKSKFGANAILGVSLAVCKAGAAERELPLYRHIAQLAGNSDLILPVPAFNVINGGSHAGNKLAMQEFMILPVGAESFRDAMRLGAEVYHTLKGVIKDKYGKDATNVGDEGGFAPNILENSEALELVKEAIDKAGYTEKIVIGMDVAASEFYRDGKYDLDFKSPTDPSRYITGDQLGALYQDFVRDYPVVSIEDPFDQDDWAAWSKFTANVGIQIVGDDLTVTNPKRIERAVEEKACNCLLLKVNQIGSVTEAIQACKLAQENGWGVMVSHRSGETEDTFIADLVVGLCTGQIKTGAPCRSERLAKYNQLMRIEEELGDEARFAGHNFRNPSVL
T1 sequence (P09104 whole entry): as above

B1: 1C5mk alone (recombinant 1C5 light chain, transfected without the heavy chain) (other)
light: QAVVTQESALTTSPGETVTLTCRSNTGAVTTSNYANWVQEKPDHLFTGLIGGTYNRAPGVPARFSGSLIGDKAALTITGAQTEDEAIYFCSLWYSNHWVFGGGTKLTVLRADAAPTVSIFPPSSEQLTSGGASVVCFLNNFYPKDINVKWKIDGSERQNGVLNSWTDQDSKDSTYSMSSTLTLTKDEYERHNSYTCEATHKTSTSPIVKSFNRNEC
notes: Tested as supernatant of 293T cells transfected with the light chain plasmid only; also called 轻链1C5mk
B1: no binding [1].

B2: ENO2单克隆抗体1C5 (from hybridoma) (antibody, V domains shown)
VH: EVKLVESGGDLVQPGGSLRLSCATSGFTFTDYYMIWVRQPPGKALEWLGFIRNKANGYTTQYNASVKGRFTISRDNSQSILYLQMNTLRPEDSATYYCVRDRRGTTFAYWGQGTLVTVSA
VL: QAVVTQESALTTSPGETVTLTCRSNTGAVTTSNYANWVQEKPDHLFTGLIGGTYNRAPGVPARFSGSLIGDKAALTITGAQTEDEAIYFCSLWYSNHWVFGGGTKLTVL
notes: It was used as hybridoma culture supernatant in the assays; also called 1C5单克隆抗体; 杂交瘤细胞上清
B2: binds [2]; binds [3].

From patent CN114478784A (SHAANXI PULSE ELEMENT BIOTECHNOLOGY LTD COMPANY, dated 2022)
